Measurements reported in patent US20050239203, “Regulation of endogenous gene expression in cells using zinc finger proteins” (published 2005).

Legend:
[1] = system: SP-1 zinc finger domain (Homo sapiens); assay: EMSA; conditions: MBP fusion, same conditions; target sequence not given
Zif268 (Mus musculus) = assay: EMSA; conditions: MBP fusion, same conditions; target sequence not given
VEGF3a/1 six-finger ZFP [2] = target: T1, VEGF3a/1 six-finger ZFP (synthetic); assay: EMSA; apparent Kd, 37 C; complex half-life more than 10x longer than VEGF1; conditions: tags: N-terminal MBP fusion; label: 5'-32P
T1 chain: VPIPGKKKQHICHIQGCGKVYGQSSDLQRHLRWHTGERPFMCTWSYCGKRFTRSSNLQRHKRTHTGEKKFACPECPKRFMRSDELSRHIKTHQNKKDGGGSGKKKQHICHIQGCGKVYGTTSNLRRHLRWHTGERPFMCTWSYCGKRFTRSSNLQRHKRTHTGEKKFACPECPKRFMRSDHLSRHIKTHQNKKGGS
Method: (§1) For the EMSA studies, 20 μl binding reactions contained 10 fmole (0.5 nM) 5′-³²P-labeled double-stranded target DNA, 35 mM Tris HCl (pH 7.8), 100 mM KCl, 1 mM MgCl₂, 5 mM dithiothreitol, 10% glycerol, 20 μg/ml poly dI-dC, 200 μg/ml bovine serum albumin, and 25 μM ZnCl₂. Protein was added as one fifth volume from a 3-fold dilution series. Binding was allowed to proceed for 60 min at either room temperature or 37° C. Polyacrylamide gel electrophoresis was carried out at room temperature or 37° C. using precast 10% or 10-20% Tris-HCl gels (BioRad) and standard Tris-Glycine runmning buffer. […] Thus, the 18-bp binding ZFP bound with high affinity to its target site. In a parallel experiment, VEGF1 protein was tested against its target using the oligonucleotides described in Example I, yielding an apparent Kd of approximately 2.5 nM.
The apparent Kd is a useful measure of the affinity of a protein for its DNA target. However, for a DNA binding site either in vitro or in vivo, its occupancy is determined to a large extent by the off-rate of the DNA-binding protein. The conditions for EMSA were as described above; binding and electrophoresis were performed at 37° C. […] Thus, under these in vitro conditions, the occupancy of the target site is much higher for the 18-bp binding protein than for the 9-bp binding protein.

VEGF3a/1 six-finger ZFP [3] = target: T1, VEGF3a/1 six-finger ZFP; assay: EMSA; apparent Kd, room temperature, 25 uM ZnCl2, poly dI-dC; conditions: tags: N-terminal MBP fusion; label: 5'-32P
Method: as §1

VEGF1-KRAB = target: T2, VEGF1-KRAB (synthetic, UniProt P08047 SEQ:1-99); assay: cell_activity; endogenous VEGF ELISA, DFX-treated 293 cells; conditions: tags: SV40 NLS, KRAB (KOX1), FLAG
T2 chain: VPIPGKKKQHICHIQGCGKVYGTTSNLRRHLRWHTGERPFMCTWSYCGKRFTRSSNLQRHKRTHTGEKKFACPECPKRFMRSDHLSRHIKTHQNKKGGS
Method: Eighteen hours post transfection, the 293 cells were induced by treatment with 100 μM DFX (desferrioxamine), resulting in a rapid and lasting transcriptional activation of the VEGF gene and also in a gradual increase in VEGF mRNA stability (Ikeda et al., J. Biol. Chem. 270:19761-19766 (1995)). Under routine culture conditions, 293 cells secrete a low level of VEGF in the culture media. The cells were allowed to incubate an additional 24 hours before the supernatants were collected for determination of VEGF levels by an ELISA assay.

Question: With SP-1 target (sequence not stated) as the molecule, how does the Kd [1] read?
Answer: The Kd was 65 nM.

Question: Zif268 target (sequence not stated) was tested. Which Kd (Zif268 (Mus musculus)) did it give?
Answer: The Kd was 60 nM.

B1: JVF9/JVF10 VEGF 18-bp target (dsDNA)
DNA 1: AGCGAGCGGGGAGGATCGCGGAGGCTTGGGGCAGCCGGGTAG
DNA 2: CGCTCTACCCGGCTGCCCCAAGCCTCCGCGATCCTCCCCGCT
Question: Which results are given for B1?
Answer: Kd (VEGF3a/1 six-finger ZFP [2]): ~9 nM; Kd (VEGF3a/1 six-finger ZFP [3]): ~1.5 nM

B2: endogenous VEGF promoter target region (dsDNA)
DNA 1: AGCGGGGAGGATCGCGGAGGCTTGG
DNA 2: CCAAGCCTCCGCGATCCTCCCCGCT
Question: B2 was tested. Which activity (VEGF1-KRAB) did it give?
Answer: The activity was 2 fold repression.
